From PMC8464984, “AimR Adopts Preexisting Dimer Conformations for Specific Target Recognition in Lysis-Lysogeny Decisions of Bacillus Phage phi3T” (Biomolecules, 2021) come the findings set out here.

The labels stand for the following.
B2: phAimR^C6S/C74S/C99S/C136S/C223S/C267S/N103C, labelled with Alexa488 and Cy5 (natural protein, Bacillus phage phi3T)
chain: MIKNESEKDNQLAARLAKLAGYEKVNGFYKFVNTPEKEMENLGGLLKIVKNLFPDSEEQLLSEYFLELDPNKKSARQSVEYSDINQWDTLTDKIIINLSNSKCSTSQEWGKVYSLHRKLNKNEISLNDAIRESGKSKIKSAEMLFFSNAMLMYAYLNIGEFGLMKSTSKLLEFDDLPEGFIKESFKSRVSMLEANISLNENSLLEARQHSNRAIENSNVNRISFFAYLTIGNTLIFEDYDEAKKAYIKGQKYAKNPVHQEMLDGALSFLSNIWKKENQWVNYNSDNIKYLQLRAFYYINQGNIEEATEILDELSSRDQDENELGFYYYYKGLISQDKTDYYKSIRYFKKSDDKYFIQLPLLQLERMGADLELLNLISI
modifications: Alexa Fluor 488 C5 maleimide or Cy5 maleimide on the cysteine at N103C
notes: AimR of Bacillus phage phi3T (GenBank KY030782.1), six solvent-exposed cysteines changed to serine and N103C added for labelling; One dye per chain; the doubly labelled species is a dimer with Alexa488 on one subunit and Cy5 on the other; also called phAimR (N103C labeling site); N103C dye-labeling; source: E. coli BL21 (DE3), purified in the same way as the wild-type phAimR, dye-conjugated, …
B3: phAimR^C6S/C74S/C99S/C136S/C223S/C267S/D174C, labelled with Alexa488 and Cy5 (natural protein, Bacillus phage phi3T)
chain: MIKNESEKDNQLAARLAKLAGYEKVNGFYKFVNTPEKEMENLGGLLKIVKNLFPDSEEQLLSEYFLELDPNKKSARQSVEYSDINQWDTLTDKIIINLSNSKNSTSQEWGKVYSLHRKLNKNEISLNDAIRESGKSKIKSAEMLFFSNAMLMYAYLNIGEFGLMKSTSKLLEFCDLPEGFIKESFKSRVSMLEANISLNENSLLEARQHSNRAIENSNVNRISFFAYLTIGNTLIFEDYDEAKKAYIKGQKYAKNPVHQEMLDGALSFLSNIWKKENQWVNYNSDNIKYLQLRAFYYINQGNIEEATEILDELSSRDQDENELGFYYYYKGLISQDKTDYYKSIRYFKKSDDKYFIQLPLLQLERMGADLELLNLISI
modifications: Alexa Fluor 488 C5 maleimide or Cy5 maleimide on the cysteine at D174C
notes: AimR of Bacillus phage phi3T (GenBank KY030782.1), six solvent-exposed cysteines changed to serine and D174C added for labelling; One dye per chain; the doubly labelled species is a dimer with Alexa488 on one subunit and Cy5 on the other; also called phAimR (D174C labeling site); D174C dye-labeling; source: E. coli BL21 (DE3), purified in the same way as the wild-type phAimR, dye-conjugated, …

Data set [1] concerns the molecule itself. Put plainly: SAXS; 100 uM protein without peptide; room temperature; 25 mM Tris-HCl pH 8.0, 300 mM NaCl.
Data set [2] deals with the molecule itself. Description: FRET or BRET; smFRET in solution, FRET between the two subunits (one dye site per chain), no ligand; about 100 pM doubly labelled phAimR; 25 C, 20 mM Tris-HCl pH 7.5, 100 mM NaCl, 0.005% Tween 20.
The target in data set [3] is T1, phAimR dimer (N103C-labelled) (Bacillus phage phi3T, UniProt P0DOE3, C136S/C223S/C267S/C6S/C74S/C99S/N103C).
T1 construct: 6xHis (N, cleaved yes); made in house; host or cells: Escherichia coli BL21 (DE3)
Put plainly: smFRET titration of phAimR dimer labelled at N103C (Alexa488/Cy5). In kind it is binding. Conditions: no ligand. The method, then: (§1) The cysteine substitutions of phAimR (phAimR^C6S/C74S/C99S/C136S/C223S/C267S/N103C or phAimR^C6S/C74S/ C99S/C136S/C223S/C267S/D174C) were generated with a standard PCR-based strategy. Proteins were prepared in the same way as the wild-type phAimR. Alexa Fluor 488 C5 maleimide (Alexa488, A10254, Thermo Fisher, Shanghai, China) and Cy5 maleimide (Cy5, PA15131, GE Healthcare, Shanghai, China) were used as fluorescence donor and acceptor, respectively. A desalting column (HiPrep 26/10, GE Healthcare, Shanghai, China) was used to exchange the protein buffer into the conjugation buffer containing 20 mM phosphate (pH 7.4) and 100 mM NaCl. The protein fraction was collected in premixed Alexa488 and Cy5 dyes. The conjugation of phAimR was performed with Alexa488 and Cy5 at a molar ratio of 1:4:4. Conjugation reaction was performed for 3 h at room temperature in the dark, and the mixture was then purified using a Source-Q column (GE Healthcare, Shanghai, China). The fractions of double-labeled protein that had absorption at 280 nm, 493 nm and 640 nm were collected for smFRET data collection.
(§2) The laser confocal fluorescence microscope MicroTime 200 (PicoQuant, Berlin, Germany) was used for single-molecule imaging, and a pulsed interleaved excitation (PIE) scheme was used with two SPCM-AQRH detectors (Excelitas, Waltham, MA, USA) for recording fluorescence time traces at two different wavelengths. Two picosecond-pulsed diode laser heads (LDH-P-C-485 and LDH-P-C-640; PicoQuant, Berlin, Germany) were driven by a PDL 828 Sepia II driver (PicoQuant) at a repetition rate of 40 MHz, which allowed interleaved excitations for Alexa488 and Cy5. Each laser was coupled to the inverted microscope IX 73 (Olympus, Beijing, China) through a single-mode fiber, and was reflected by a dichroic mirror through a water-immersion objective (UPLSAPO 60×, N.A. 1.20). The protein sample was loaded onto a hybridization chamber (Thermo Fisher) glued to a glass coverslip (Thermo Fisher, Shanghai, China). The laser confocal point was set to about 50 μm above the coverslip. The excitation power at the back of the objective was about 100 μW for the 485 nm laser and about 35 μW for the 640 nm laser, as estimated with a power meter (PM20-FC; Thorlabs, Shanghai, China). Focused to a 100 μm pinhole, the fluorescence emission from the excited protein molecule was collected with the same objective. The donor and acceptor emissions were separated with a dichroic mirror (T635lpxr; Chroma, Xiamen, China). The donor emission was filtered with a 520/35 BP band pass, and the acceptor emission was filtered with a 690/70 BP band pass, before being focused onto the two SPCM-AQRH detectors.
(§3) The fluorescence outputs were recorded with a TimeHarp 260 PCI board (PicoQuant, Berlin, Germany) built into a PC workstation, and the data were stored in the time-tagged time-resolved module (PicoQuant, Berlin, Germany). The photon counts including fDex/Dem, fDex/Aem and fAex/Aem were obtained by binning the photons in 1 ms bins using SymPhoTime64 software (PicoQuant, Berlin, Germany). […] With all three fluorescence time traces recorded, the signals from the donor-only or acceptor-only protein molecules were filtered out, so as to ensure that an fDex/Aem photon only arises from a doubly labeled protein. […]

The target in data set [4] is T2, phAimR dimer (D174C-labelled) (Bacillus phage phi3T, UniProt P0DOE3, C136S/C223S/C267S/C6S/C74S/C99S/D174C).
T2 construct: 6xHis (N, cleaved yes); made in house; host or cells: Escherichia coli BL21 (DE3)
Description: smFRET titration of phAimR dimer labelled at D174C (Alexa488/Cy5). The data set is classed as binding. To be noted: no ligand. The protocol:
as §1, §2, §3

In data set [5] the target is B2. Description: FRET or BRET; smFRET in solution; about 100 pM doubly labelled (Alexa488/Cy5) phAimR, peptide titrated; KD from the population of the enriched FRET state; 25 C, 20 mM Tris-HCl pH 7.5, 100 mM NaCl, 0.005% Tween 20, 1 mM L-ascorbic acid, 1 mM methylviologen. Conditions: both partners purified. (In BRET a luciferase serves as donor, and the signal depends on an acceptor being close.)

The target in data set [6] is B3. The description is as above. To be noted: both partners purified.

B1: phAimR carrying two amino acids substitutions (phAimR^Y341A/E371A) (natural protein, Bacillus phage phi3T)
chain: MIKNECEKDNQLAARLAKLAGYEKVNGFYKFVNTPEKEMENLGGLLKIVKNLFPDSEEQLLSEYFLELDPNKKCARQSVEYSDINQWDTLTDKIIINLCNSKNSTSQEWGKVYSLHRKLNKNEISLNDAIRESGKCKIKSAEMLFFSNAMLMYAYLNIGEFGLMKSTSKLLEFDDLPEGFIKESFKSRVSMLEANISLNENSLLEARQHSNRAIENSNVNRICFFAYLTIGNTLIFEDYDEAKKAYIKGQKYAKNPVHQEMLDGALCFLSNIWKKENQWVNYNSDNIKYLQLRAFYYINQGNIEEATEILDELSSRDQDENELGFYYYYKGLISQDKTDYAKSIRYFKKSDDKYFIQLPLLQLERMGADLALLNLISI
notes: AimR of Bacillus phage phi3T (GenBank KY030782.1) with Y341A and E371A; also called phAim^Y341A/E371A; phAimR^Y341/E371A; source: E. coli BL21 (DE3), purified, prepared in the same way as the wild-type protein; not shown: His6, N-terminal, cleaved
As usually defined, the stoichiometry N is a count of units in the complex or per binding partner. On to B1, for which the “stoichiometry N” value in data set [1] was 2.

For the molecule B2, the “stoichiometry N” value in data set [2] turned out to be 2.

Consider B3, for which, in data set [2], the “stoichiometry N” value is 2.

B4: phAimR: AimR from Phi3T phage (GenBank: KY030782.1), transcription factor and arbitrium peptide receptor (protein)
chain: MIKNECEKDNQLAARLAKLAGYEKVNGFYKFVNTPEKEMENLGGLLKIVKNLFPDSEEQLLSEYFLELDPNKKCARQSVEYSDINQWDTLTDKIIINLCNSKNSTSQEWGKVYSLHRKLNKNEISLNDAIRESGKCKIKSAEMLFFSNAMLMYAYLNIGEFGLMKSTSKLLEFDDLPEGFIKESFKSRVSMLEANISLNENSLLEARQHSNRAIENSNVNRICFFAYLTIGNTLIFEDYDEAKKAYIKGQKYAKNPVHQEMLDGALCFLSNIWKKENQWVNYNSDNIKYLQLRAFYYINQGNIEEATEILDELSSRDQDENELGFYYYYKGLISQDKTDYYKSIRYFKKSDDKYFIQLPLLQLERMGADLELLNLISI
modifications: left off: His6, N-terminal, cleaved
notes: AimR from Phi3T phage (GenBank: KY030782.1), transcription factor and arbitrium peptide receptor
On to B4, for which, in data set [3], the “FRET efficiency centre of high-FRET species (state 2)” value is given as approximately 62%; the “FRET efficiency centre of low-FRET species (state 1)” value was “about 30%”; the “population of high-FRET species (Phigh, state 2)” value is on record as ~ 42%; the “population of low-FRET species (Plow, state 1)” value is ~ 58%. In addition, in data set [4], the “FRET efficiency centre of high-FRET species (state 1)” value is given as approximately 63%, the “FRET efficiency centre of low-FRET species (state 2)” value is on record as “about 35%”, the “population of high-FRET species (state 1)” value is ~ 61% and the “population of low-FRET species (state 2)” value is ~ 39%.

B5: phi3T arbitrium peptide (SAIRGA) (peptide)
peptide: SAIRGA
notes: mature arbitrium peptide processed from the AimP pro-peptide (43 amino acids) of Bacillus phage phi3T; also called SAIRGA peptide; phi3T-derived peptide
A word on the Kd: it is the free concentration of one partner at which half of the binding sites on the other are occupied at equilibrium, for simple one-to-one binding. Read a high Kd as lower affinity. For B5, the Kd came to 41.5 ± 5.8 nM in data set [5] and 22.9 ± 0.5 nM in data set [6].
